The target of assay [1] is β-Amyloid peptide Aβ-(1–40). Kind of assay: filtration.
Assay [2] addresses β-Amyloid peptide Aβ-(1–40). Briefly: continuous-wave EPR.

Values joined by “and” are separate entries in the source; they are usually repeats but may differ in a detail not shown here. Identical values can stand only once.

In the case of “Spin-labeled Cys-(Aβ) (40 residue Aβ peptide variant containing an N-terminal cysteine, labeled with MTSL)”, the % of the slow component (larger aggregates) in the total spectrum, retentate in assay [1] came out at 34%. In assay [2], the % of the slow component (larger aggregates) in the total spectrum, 5–6 h amounted to 34%; the stoichiometry N – broadly, a count of units in the complex or per binding partner – is 8 molecules and 15 molecules.

The record behind these values is paper PMC2779421.
